{
  "source": "paper PMC11676761",
  "about": "“Mining and Characterization of Amylosucrase from Calidithermus terrae for Synthesis of α-Arbutin Using Sucrose” (International Journal of Molecular Sciences, 2024)",
  "proteins": {"B1": {"name": "(Calidithermus terrae) (protein)", "chain": "MFSTPLPAELRPLLERLLVQAESDLSGSDLETFSLRLERYLPDLHAGLAAVYPDVEGLLERLLPVLTAAHRARPAGLKRLDAHRLLAPDWFQRPEMIAYVAYTERFAGTLKGIEERLDYLEELGVRYLHLMPFLKPRPAPHDGGYAVMDYRAVREDLGSMDDLEALTAKLRARGIALCCDLVLNHVAQEHEWAVRARAGEARYQHYFHMFPDRTLPDEYEKTLPEVFPDFAPGNFTFDEASGKWVWTTFNRWQWDLNWANPAVFLEFADLILWLANRGVEVFRLDAIAFIWKRLGTNCQNQPEVHAITQALRAVARVVAPAVLFKAEAIVAPDDLIHYLGQGEHFGLVSDTAYHNSLMVQIWSSLASRDVRLMSEALRRFPVKPTNTAWNTYLRCHDDIGWAIADDDAARVGLSGEAHRRFLSDYYSGRFPTSPSRGLVFQENPRTGDRRISGSGASLAGLEQALEQNDPRQVHLSLERLLLGHAVVLGFGGIPLLYMGDELALLNDYSYLEEPEHAEDNRWVHRPHMDWDKAARAKADPASTEGRMYHGLLHLIRVRRATPHFHAAIEAQILEPRNPHVFGYVRRHPLGNLVALYNFSEEVQYYPAEVLWQQGLSLPHDRIGGQLVPIERHLVRLEPYARLWITDEV"}},
  "substrate": "OC[C@H]1O[C@@](CO)(O[C@H]2O[C@H](CO)[C@@H](O)[C@H](O)[C@H]2O)[C@@H](O)[C@@H]1O",
  "assay": "DNS assay of released fructose, Lineweaver-Burk",
  "type": "biochemical, Calidithermus terrae",
  "conditions": "42.0 °C",
  "data": [
    {"protein": "B1", "values": [
      {"measurement": "Km", "result": 89.39, "unit": "mM"},
      {"measurement": "kcat", "result": 86.3995, "unit": "s⁻¹"}
    ]}
  ]
}
